Experimental data from publication PMC9844003, “A pH-dependent anti-CD47 antibody that selectively targets solid tumors and improves therapeutic efficacy and safety” (Journal of Hematology & Oncology, 2023).

Legend:
[1] = biological target: T1, extracellular domain of CD47 fused to a His(×6)-Avi-tag (Homo sapiens, UniProt Q08722); assay: ELISA; CD47-ECD coated on plates; serial dilutions of phage-scFvs, detected with anti-M13-HRP; pH 7.4 and pH 6.0; settings: one partner purified
T1 construct: CD47, extracellular domain; also called CD47-ECD

[2] = biological target: T1, extracellular domain of CD47 fused to a …; assay: SPR; Biacore T200, 25 °C; anti-human IgG immobilised on a CM5 chip, antibodies (hIgG1 form) captured, twofold serially diluted CD47-ECD injected; pH 6.8 buffer; 1:1 binding model; settings: both partners purified
[3] = biological target: T1, extracellular domain of CD47 fused to a …; assay: SPR; Biacore T200, 25 °C; anti-human IgG immobilised on a CM5 chip, antibodies (hIgG1 form) captured, twofold serially diluted CD47-ECD injected; pH 7.4 buffer; 1:1 binding model; settings: both partners purified
[4] = biological target: T1, extracellular domain of CD47 fused to a …; assay: ELISA; CD47-ECD coated on plates; serial dilutions of BC31M4 mutants in hIgG1 form; pH 7.4 and pH 6.8; settings: both partners purified
[5] = biological target: T1, extracellular domain of CD47 fused to a …; assay: ELISA; CD47-ECD coated on plates; phage-scFv site saturation mutants of BC31M4, detected with anti-M13-HRP; pH 6.5 and pH 7.4; settings: one partner purified
[6] = biological target: T2, full-length human CD47 stably expressed on CHO cells (CHO-hCD47) (human, UniProt Q08722); assay: flow cytometry on cells; blocking assay of BC27: serially diluted antibody incubated with cells in the presence of bio-SIRPα-Fc, detected with streptavidin-FITC; pH 6.0, 6.5, 6.9 and 7.4; up to 1 µM antibody; settings: one partner purified
T2 construct: full-length human CD47, stably expressed on CHO cells; also called CHO-CD47; cell-surface CD47; source: CHO cells, stably expressing, on cells

[7] = biological target: T2, full-length human CD47 stably expressed …; assay: flow cytometry on cells; serially diluted antibodies (hIgG1 form) incubated with CHO-CD47 or tumor cells, detected with goat anti-human IgG-FITC; pH 6.8 and pH 7.4 separately; settings: one partner purified
[8] = biological target: T3, cell-surface CD47 on Raji, Jurkat and MDA-231 tumor cells (human (endogenous in Raji, Jurkat, …, UniProt Q08722)); assay: as above; settings: one partner purified
T3 construct: CD47 endogenous on human tumor cell lines
T3 sequence (Q08722 19-323): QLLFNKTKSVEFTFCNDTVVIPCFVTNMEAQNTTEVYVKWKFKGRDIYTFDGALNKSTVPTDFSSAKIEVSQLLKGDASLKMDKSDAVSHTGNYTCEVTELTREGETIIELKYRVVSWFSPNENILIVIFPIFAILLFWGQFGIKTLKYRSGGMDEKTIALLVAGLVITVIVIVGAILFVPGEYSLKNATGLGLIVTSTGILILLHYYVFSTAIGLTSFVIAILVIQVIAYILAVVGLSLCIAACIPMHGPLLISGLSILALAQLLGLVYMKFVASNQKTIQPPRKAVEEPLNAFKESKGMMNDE

T1 sequence (Q08722 whole entry, looked up, the tested form may be a part): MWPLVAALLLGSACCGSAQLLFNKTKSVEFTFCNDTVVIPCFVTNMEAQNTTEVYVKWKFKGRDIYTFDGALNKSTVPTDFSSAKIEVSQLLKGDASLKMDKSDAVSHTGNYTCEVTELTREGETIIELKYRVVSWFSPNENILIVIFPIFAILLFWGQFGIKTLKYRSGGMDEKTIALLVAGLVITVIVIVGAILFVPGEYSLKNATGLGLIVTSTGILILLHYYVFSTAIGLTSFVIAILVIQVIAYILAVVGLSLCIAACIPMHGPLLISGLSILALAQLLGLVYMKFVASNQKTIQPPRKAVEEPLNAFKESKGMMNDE
T2 sequence (Q08722 19-323): as the sequence (Q08722 19-323) above

B1: BC27 (phage-scFv form) (scFv, V domains shown)
VH: QVQLVQSGAEVKKPGASVKVSCKASGYTFTSYGISWVRQAPGQGLEWMGWISAYNGNTNYAQKLQGRVTMTTDTSTSTAYMELRSLRSDDTAVYYCARGKVYFDYWGQGTLVTVSS
VL: EIVLTQSPATLSLSPGERATLSCRASQSLSRNHLAWYQQKPGQPPRLLIHWASTRESGVPDRFSGSGSGTDFTLTISSLQAEDVAVYYCQQYYTASWTFGQGTKVEIK
notes: VH of BC27: as the variable region of the heavy chain of m6 (PDB 7WN8) except in HCDR3; scFv linker of the library; VL of BC27: as the variable region of the light chain of m6 (PDB 7WN8) except in LCDR3
B1: binds [1].

B2: BC31M5 (hIgG1 form) (antibody, V domains shown)
VH: QVQLVQSGAEVKKPGASVKVSCKASGYTFTSYGISWVRQAPGQGLEWMGWISAYNGNTNYAQKLQGRVTMTTDTSTSTAYMELRSLRSDDTAVYYCARGTVYFDYWGQGTLVTVSS
VL: EIVLTQSPATLSLSPGERATLSCRASQSLSRNHLAWYQQKPGQPPRLLIHWASTRESGVPDRFSGSGSGTDFTLTISSLQAEDVAVYYCQQHTQNTWTFGQGTKVEIK
notes: VH of BC31M5: as the variable region of the heavy chain of m6 (PDB 7WN8); constant region of the human IgG1 heavy chain (from the expression vector); VL of BC31M5: as the variable region of the light chain of m6 (PDB 7WN8); constant region of the light chain from the hIgG1 light-chain vector; IgG1
For B2, the “fold higher binding affinity than BC31M4 at pH 6.8” value [2] was about 3 fold and the “pH-dependence (ratio of KD at pH 7.4 to KD at pH 6.8)” value [3] was about 1.9 fold.

B3: BC31M4 (hIgG1 form) with the 55R/107R substitution (antibody, V domains shown)
VH: QVQLVQSGAEVKKPGASVKVSCKASGYTFTSYGISWVRQAPGQGLEWMGWISAYNGNTNYAQKLQGRVTMTTDTSTSTAYMELRSLRSDDTAVYYCARGAVYFDYWGQGTLVTVSS
VL: EIVLTQSPATLSLSPGERATLSCRASQSLSRNHLAWYQQKPGQPPRLLIRWASTRESGVPDRFSGSGSGTDFTLTISSLQAEDVAVYYCQQRTQNTWTFGQGTKVEIK
notes: VH of BC31M4: as the variable region of the heavy chain of m6 (PDB 7WN8) with A instead of T at residue 108 of HCDR3 (IMGT numbering); constant region of the human IgG1 heavy chain (from the expression vector); VL of BC31M4 (as the variable region of the light chain of m6, PDB 7WN8) with histidine-to-arginine substitutions, IMGT numbering; constant region of the light chain from the hIgG1 …
B3: binds [4].

B4: BC31M4 (hIgG1 form) with the 38R/55R substitution (antibody, V domains shown)
VH: QVQLVQSGAEVKKPGASVKVSCKASGYTFTSYGISWVRQAPGQGLEWMGWISAYNGNTNYAQKLQGRVTMTTDTSTSTAYMELRSLRSDDTAVYYCARGAVYFDYWGQGTLVTVSS
VL: EIVLTQSPATLSLSPGERATLSCRASQSLSRNRLAWYQQKPGQPPRLLIRWASTRESGVPDRFSGSGSGTDFTLTISSLQAEDVAVYYCQQHTQNTWTFGQGTKVEIK
notes: as for B3
B4: binds [4].

B5: BC31M4 (phage-scFv form), wild type (scFv, V domains shown)
VH: QVQLVQSGAEVKKPGASVKVSCKASGYTFTSYGISWVRQAPGQGLEWMGWISAYNGNTNYAQKLQGRVTMTTDTSTSTAYMELRSLRSDDTAVYYCARGAVYFDYWGQGTLVTVSS
VL: EIVLTQSPATLSLSPGERATLSCRASQSLSRNHLAWYQQKPGQPPRLLIHWASTRESGVPDRFSGSGSGTDFTLTISSLQAEDVAVYYCQQHTQNTWTFGQGTKVEIK
notes: VH of BC31M4: as the variable region of the heavy chain of m6 (PDB 7WN8) with A instead of T at residue 108 of HCDR3 (IMGT numbering); scFv linker; VL of BC31M4: as the variable region of the light chain of m6 (PDB 7WN8); also called wild-type BC31M4
B5: binds [5].

B6: BC27 (hIgG1 form) (antibody, V domains shown)
VH: QVQLVQSGAEVKKPGASVKVSCKASGYTFTSYGISWVRQAPGQGLEWMGWISAYNGNTNYAQKLQGRVTMTTDTSTSTAYMELRSLRSDDTAVYYCARGKVYFDYWGQGTLVTVSS
VL: EIVLTQSPATLSLSPGERATLSCRASQSLSRNHLAWYQQKPGQPPRLLIHWASTRESGVPDRFSGSGSGTDFTLTISSLQAEDVAVYYCQQYYTASWTFGQGTKVEIK
notes: VH of BC27, parent of BC31M4 and BC31M5: as the variable region of the heavy chain of m6 (PDB 7WN8) except in HCDR3; constant region of the human IgG1 heavy chain (from the expression vector); VL of BC27: as the variable region of the light chain of m6 (PDB 7WN8) except in LCDR3; constant region of the light chain from the hIgG1 light-chain vector; IgG1; Random mutations were introduced only into …
B6: binds [6].

B7: BC31M4 (hIgG1 form) (antibody, V domains shown)
VH: QVQLVQSGAEVKKPGASVKVSCKASGYTFTSYGISWVRQAPGQGLEWMGWISAYNGNTNYAQKLQGRVTMTTDTSTSTAYMELRSLRSDDTAVYYCARGAVYFDYWGQGTLVTVSS
VL: EIVLTQSPATLSLSPGERATLSCRASQSLSRNHLAWYQQKPGQPPRLLIHWASTRESGVPDRFSGSGSGTDFTLTISSLQAEDVAVYYCQQHTQNTWTFGQGTKVEIK
notes: VH of BC31M4: as the variable region of the heavy chain of m6 (BC31M5, PDB 7WN8) with alanine instead of threonine at residue 108 of HCDR3 (IMGT numbering); constant region of the human IgG1 heavy chain (from the expression vector); VL of BC31M4: as the variable region of the light chain of m6 (BC31M5, PDB 7WN8); only one amino acid (heavy chain 108) differs between the two antibodies; constant …
B7: binds [7]; binds [8].

B8: BC31M4 (phage-scFv form) with VL H107 replaced by arginine (scFv, V domains shown)
VH: QVQLVQSGAEVKKPGASVKVSCKASGYTFTSYGISWVRQAPGQGLEWMGWISAYNGNTNYAQKLQGRVTMTTDTSTSTAYMELRSLRSDDTAVYYCARGAVYFDYWGQGTLVTVSS
VL: EIVLTQSPATLSLSPGERATLSCRASQSLSRNHLAWYQQKPGQPPRLLIHWASTRESGVPDRFSGSGSGTDFTLTISSLQAEDVAVYYCQQRTQNTWTFGQGTKVEIK
notes: VH of BC31M4: as the variable region of the heavy chain of m6 (PDB 7WN8) with A instead of T at residue 108 of HCDR3 (IMGT numbering); scFv linker; VL of BC31M4 (as the variable region of the light chain of m6, PDB 7WN8) with H107 (LCDR3, IMGT numbering) changed
B8: binds [5].

B9: BC31M4 (phage-scFv form) with VL H38 replaced by arginine (scFv, V domains shown)
VH: QVQLVQSGAEVKKPGASVKVSCKASGYTFTSYGISWVRQAPGQGLEWMGWISAYNGNTNYAQKLQGRVTMTTDTSTSTAYMELRSLRSDDTAVYYCARGAVYFDYWGQGTLVTVSS
VL: EIVLTQSPATLSLSPGERATLSCRASQSLSRNRLAWYQQKPGQPPRLLIHWASTRESGVPDRFSGSGSGTDFTLTISSLQAEDVAVYYCQQHTQNTWTFGQGTKVEIK
notes: VH of BC31M4: as the variable region of the heavy chain of m6 (PDB 7WN8) with A instead of T at residue 108 of HCDR3 (IMGT numbering); scFv linker; VL of BC31M4 (as the variable region of the light chain of m6, PDB 7WN8) with H38 (LCDR1, IMGT numbering) changed
B9: binds [5].

B10: BC31M4 (phage-scFv form) with VL H107 replaced by lysine (scFv, V domains shown)
VH: QVQLVQSGAEVKKPGASVKVSCKASGYTFTSYGISWVRQAPGQGLEWMGWISAYNGNTNYAQKLQGRVTMTTDTSTSTAYMELRSLRSDDTAVYYCARGAVYFDYWGQGTLVTVSS
VL: EIVLTQSPATLSLSPGERATLSCRASQSLSRNHLAWYQQKPGQPPRLLIHWASTRESGVPDRFSGSGSGTDFTLTISSLQAEDVAVYYCQQKTQNTWTFGQGTKVEIK
notes: VH of BC31M4: as the variable region of the heavy chain of m6 (PDB 7WN8) with A instead of T at residue 108 of HCDR3 (IMGT numbering); scFv linker; VL of BC31M4 (as the variable region of the light chain of m6, PDB 7WN8) with H107 (LCDR3, IMGT numbering) changed; also called H107K
B10: binds [5].

B11: BC31M4 (phage-scFv form) with VL H38 replaced by lysine (scFv, V domains shown)
VH: QVQLVQSGAEVKKPGASVKVSCKASGYTFTSYGISWVRQAPGQGLEWMGWISAYNGNTNYAQKLQGRVTMTTDTSTSTAYMELRSLRSDDTAVYYCARGAVYFDYWGQGTLVTVSS
VL: EIVLTQSPATLSLSPGERATLSCRASQSLSRNKLAWYQQKPGQPPRLLIHWASTRESGVPDRFSGSGSGTDFTLTISSLQAEDVAVYYCQQHTQNTWTFGQGTKVEIK
notes: VH of BC31M4: as the variable region of the heavy chain of m6 (PDB 7WN8) with A instead of T at residue 108 of HCDR3 (IMGT numbering); scFv linker; VL of BC31M4 (as the variable region of the light chain of m6, PDB 7WN8) with H38 (LCDR1, IMGT numbering) changed; also called H38K
B11: binds [5].
